In US20150344570A1 (published 2015):
Positions count from the first letter of the chain named. Names and notes keep the numbering of the source. Read-outs that look alike come from different tables or passages of the source.

T1: FcgRIIa H (human, UniProt P12318 34-217)
T1 construct: extracellular domain; also called FcγRIIa H; FcγRIIa type H
T1 sequence (looked up): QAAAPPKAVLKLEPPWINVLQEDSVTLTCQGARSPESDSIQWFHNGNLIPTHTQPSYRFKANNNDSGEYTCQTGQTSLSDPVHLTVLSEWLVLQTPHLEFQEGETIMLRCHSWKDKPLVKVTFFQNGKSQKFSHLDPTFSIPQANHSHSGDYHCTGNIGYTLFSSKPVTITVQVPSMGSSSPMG

T2: FcgRIIa R (human, UniProt P12318 34-217)
T2 construct: extracellular domain; also called FcγRIIa R; FcγRIIa type R
T2 sequence (looked up): T1 sequence (looked up) with H134R

T3: FcgRIIb (human, UniProt P31994 43-217)
T3 construct: extracellular domain; also called FcγRIIb; CD32B
T3 sequence (looked up): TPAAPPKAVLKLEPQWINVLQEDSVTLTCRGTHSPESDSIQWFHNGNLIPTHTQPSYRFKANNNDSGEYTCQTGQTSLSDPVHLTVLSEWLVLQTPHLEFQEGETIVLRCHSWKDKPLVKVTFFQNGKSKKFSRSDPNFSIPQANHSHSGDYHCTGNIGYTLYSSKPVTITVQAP

B1: H240-Kn061/H240-Hl134/L73-k0 (antibody, human IgG1, kappa)
heavy 1: QDQLVQSGAEVKKPGASVKVSCKASGFNIKDTYIQWVRQAPGQGLEWMGRIDPLRKQTKYREKFEGRVTITADTSTNTAYMELSSLRSEDTAVYYCVRSGREFDYWGQGTLVTVSSASTKGPSVFPLAPSSKSTSGGTAALGCLVKDYFPEPVTVSWNSGALTSGVHTFPAVLQSSGLYSLSSVVTVPSSSLGTQTYICNVNHKPSNTKVDKKVEPKSCDKTHTCPPCPAPEYYWGPSVFLFPPKPKDTLMISRTPEVTCVVVDVSDEDPEVKFNWYVDGVEVHNAKTKPREEQYNATYRVVSVLTVLHQDWLNGKEYKCKVSNKALPAPIEKTISKAKGQPREPQVCTLPPSRDELTKNQVSLWCLVKGFYPSDIAVEWESNGQPENNYKTTPPVLDSDGSFFLYSKLTVDKSRWQQGNVFSCSVMHEALHNHYTQKSLSLSP
heavy 2: B1 heavy 1 with C348Y, D355C, W365S, L367A, Y406V
light: DIQMTQSPSSLSASVGDRVTITCRASQDIHKYIAWYQQKPGQAPRLLIQYTSTLQPGVPSRFSGSGSGTDYTFTISSLQPEDIATYYCLQYEQLRTFGGGTKVEIKRTVAAPSVFIFPPSDEQLKSGTASVVCLLNNFYPREAKVQWKVDNALQSGNSQESVTEQDSKDSTYSLSSTLTLSKADYEKHKVYACEVTHQGLSSPVTKSFNRGEC
notes: Anti-epiregulin IgG1, knobs-into-holes; called homodimerized as both H chains carry L234Y/L235Y/G236W/H268D/S298A
B2: H240-Kn132/H240-Hl071/L73-k0 (antibody, human IgG1, kappa)
heavy 1: B1 heavy 1 with Y233L, Y234L, W235G, D267H, A297S, K325D, A329M, K333E
heavy 2: QDQLVQSGAEVKKPGASVKVSCKASGFNIKDTYIQWVRQAPGQGLEWMGRIDPLRKQTKYREKFEGRVTITADTSTNTAYMELSSLRSEDTAVYYCVRSGREFDYWGQGTLVTVSSASTKGPSVFPLAPSSKSTSGGTAALGCLVKDYFPEPVTVSWNSGALTSGVHTFPAVLQSSGLYSLSSVVTVPSSSLGTQTYICNVNHKPSNTKVDKKVEPKSCDKTHTCPPCPAPELLGGPSVFLFPPKPKDTLMISRTPEVTCVVVDVSHEDPEVKFNWYVDGVEVHNAKTKPREEQYNSTYRVVSVLTVLHQDWLNGKEYKCKVSNDALPMPIEETISKAKGQPREPQVYTLPPSRCELTKNQVSLSCAVKGFYPSDIAVEWESNGQPENNYKTTPPVLDSDGSFFLVSKLTVDKSRWQQGNVFSCSVMHEALHNHYTQKSLSLSP
light: B1 light
notes: Anti-epiregulin IgG1, knobs-into-holes; called homodimerized as both H chains carry K326D/A330M/K334E
B3: H240-Kn067/H240-Hl136/L73-k0 (antibody, human IgG1, kappa)
heavy 1: B1 heavy 1 with A326D
heavy 2: B1 heavy 1 with A326D, C348Y, D355C, W365S, L367A, Y406V
light: B1 light
notes: Called homodimerized: both H chains have L234Y/L235Y/G236W/H268D/S298A/A327D
B4: H240-Kn113/H240-Hl076/L73-k0 (antibody, human IgG1, kappa)
heavy 1: B1 heavy 1 with Y233E, Y234N, D269E
heavy 2: B2 heavy 2 with D269E
light: B1 light
notes: H240-Kn113: Y234E and Y235N introduced into H240-Kn072
B5: H240-Kn115/H240-Hl076/L73-k0 (antibody, human IgG1, kappa)
heavy 1: B1 heavy 1 with S238M, D269E
heavy 2: B2 heavy 2 with D269E
light: B1 light
notes: H240-Kn115: S239M introduced into H240-Kn072
B6: H240-Kn125/H240-Hl076/L73-k0 (antibody, human IgG1, kappa)
heavy 1: B1 heavy 1 with Y234Q, S238M, D269E
heavy 2: B2 heavy 2 with D269E
light: B1 light
notes: H240-Kn125: Y235Q and S239M introduced into H240-Kn072
B7: H240-Kn133/H240-Hl068/L73-k0 (antibody, human IgG1, kappa)
heavy 1: B2 heavy 2 with D269E, M329K, Y348C, C355D, S365W, A367L, V406Y
heavy 2: B2 heavy 2 with D269E, M329K
light: B1 light
notes: Called homodimerized: both H chains have D270E/K326D/A330K/K334E

Assays:
[1] = target: T4, FcγRIIIa V extracellular domain with C-terminal His tag (human, UniProt P08637 17-208); test: SPR (Biacore), antibody captured on chip, soluble FcγR as analyte, 1:1 Langmuir fit
T4 construct: extracellular domain; Soluble receptor, V158 allotype; also called FcgRIIIa V; FcgRIIIaV; not shown: His tag at the C terminus
T4 sequence (P08637 17-208 F176V): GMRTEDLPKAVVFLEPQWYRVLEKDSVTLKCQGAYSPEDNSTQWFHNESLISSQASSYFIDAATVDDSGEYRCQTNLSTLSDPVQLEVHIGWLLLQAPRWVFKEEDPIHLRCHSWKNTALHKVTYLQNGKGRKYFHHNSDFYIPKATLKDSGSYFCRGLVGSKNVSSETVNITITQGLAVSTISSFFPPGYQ
Experimental: (§1) Specifically, H240-Hl134 (SEQ ID NO: 88) resulting from introduction of L234Y/L235Y/G236W/H268D/S298A into H240-Hl033 and H240-Kn132 (SEQ ID NO: 89) resulting from introduction of K326D/A330M/K334E into H240-Kn033 were constructed according to the method described in Reference Example 1.
(§2) Analysis of interaction between objective antibody and the FcγR was carried out using Biacore T100 (GE Healthcare), Biacore T200, Biacore A100, and Biacore 4000. HBS-EP+ (GE Healthcare) was used as the running buffer, and the measurement temperature was set to 25° C. Chips produced by immobilizing the antigen peptide by the amine coupling method to a Series S sensor Chip CM5 (GE Healthcare), chips produced by allowing preliminarily biotinylated antigen peptides to interact with and immobilize onto a Series S Sensor Chip SA (certified) (GE Healthcare), chips produced by immobilizing Protein L (ACTIGEN, BioVision) to Series S Sencor Chip CM5 (GE Healthcare), or chips produced by immobilizing Protein A/G (Thermo Scientific) to Series S Sencor Chip CM5 (GE Healthcare) were used. Antibodies of interest were captured onto these chips, and allowed to interact to each FcγR diluted with running buffer. To regenerate and repeatedly use the chip, the antibodies captured onto the chip were washed off by reacting 10 mM glycine-HCl, pH 1.5.

[2] = target: T5, FcγRIIIa F extracellular domain with C-terminal His tag (human, UniProt P08637 17-208); test: as above
T5 construct: extracellular domain; Soluble receptor, F158 allotype; also called FcgRIIIa F; FcgRIIIaF; not shown: His tag at the C terminus
T5 sequence (P08637 17-208): as the sequence (P08637 17-208 F176V) above, with V160F counted along it
Experimental: as §1, §2

FcgRIIIa F [3] = target: T6, FcgRIIIa F (human, UniProt P08637 17-208); test: SPR (Biacore), antibody captured, FcgR as analyte
T6 construct: extracellular domain; polymorphic site made after J. Clin. Invest; also called FcγRIIIa F
T6 sequence (P08637 17-208): as the sequence (P08637 17-208 F176V) above, with V160F counted along it
Experimental: (§3) Then, H240-Hl136 (SEQ ID NO: 97) resulting from introduction of L234Y/L235Y/G236W/H268D/S298A/A327D into H240-Hl033 and H240-Kn133 (SEQ ID NO: 98) resulting from introduction of D270E/K326D/A330K/K334E into H240-Kn033 were constructed according to the method described in Reference Example 1.
as §2, with “buffer.” for “buffer. To regenerate and repeatedly use the chip, the antibodies captured onto the chip were washed off by reacting 10 mM glycine-HCl, pH 1.5.”

FcgRIIIa V [4] = target: T7, FcgRIIIa V (human, UniProt P08637 17-208); test: SPR (Biacore), antibody captured, FcgR as analyte
T7 construct: extracellular domain; polymorphic site made after J. Clin. Invest; also called FcγRIIIa V
T7 sequence (P08637 17-208 F176V limits assumed): as the sequence (P08637 17-208 F176V) above
Experimental: as §3
as §2, with “buffer.” for “buffer. To regenerate and repeatedly use the chip, the antibodies captured onto the chip were washed off by reacting 10 mM glycine-HCl, pH 1.5.”

FcgRIIa H [5] = target: T1, FcgRIIa H; test: SPR (Biacore), antibody captured, FcgR as analyte
Experimental: as §3
as §2, with “buffer.” for “buffer. To regenerate and repeatedly use the chip, the antibodies captured onto the chip were washed off by reacting 10 mM glycine-HCl, pH 1.5.”

FcgRIIa R [6] = target: T2, FcgRIIa R; test: SPR (Biacore), antibody captured, FcgR as analyte
Experimental: as §3
as §2, with “buffer.” for “buffer. To regenerate and repeatedly use the chip, the antibodies captured onto the chip were washed off by reacting 10 mM glycine-HCl, pH 1.5.”

FcgRIa = target: T8, FcgRIa (human, UniProt P12314 16-292); test: SPR (Biacore), antibody captured, FcgR as analyte
T8 construct: extracellular domain; also called FcγRIa; FcγRI
T8 sequence (P12314 16-292): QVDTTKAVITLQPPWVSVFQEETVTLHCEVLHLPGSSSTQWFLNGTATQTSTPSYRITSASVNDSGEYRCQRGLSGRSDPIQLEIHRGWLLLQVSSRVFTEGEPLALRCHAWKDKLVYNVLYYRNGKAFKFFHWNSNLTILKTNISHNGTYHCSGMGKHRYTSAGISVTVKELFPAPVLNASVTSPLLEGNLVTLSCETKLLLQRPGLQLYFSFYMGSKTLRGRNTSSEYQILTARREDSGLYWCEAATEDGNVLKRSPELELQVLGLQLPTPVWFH
Experimental: (§4) H240-Kn113 (SEQ ID NO: 92) resulting from introduction of Y234E and Y235N into H240-Kn072, H240-Kn115 (SEQ ID NO: 93) resulting from introduction of S239M into H240-Kn072, and H240-Kn125 (SEQ ID NO: 94) resulting from introduction of Y235Q and S239M into H240-Kn072 were prepared according to the method described in Reference Example 1. H240-Kn113/H240-Hl076/L73-k0, H240-Kn115/H240-Hl076/L73-k0, and H240-Kn125/H240-Hl076/L73-k0 were prepared by combining H240-Hl076 as an H chain, L73-k0 as the L chain, and H240-Kn113, H240-Kn115, and H240-Kn125 as the other H chain according to the method described in Reference Example 1.
as §2

FcgRIIb = target: T3, FcgRIIb; test: SPR (Biacore), antibody captured, FcgR as analyte
Experimental: as §4, §2

FcgRIIIa F [7] = target: T6, FcgRIIIa F; test: SPR (Biacore), antibody captured, FcgR as analyte; remark: listed apart in the source
Experimental: as §4, §2

FcgRIIIa V [8] = target: T7, FcgRIIIa V; test: SPR (Biacore), antibody captured, FcgR as analyte; remark: listed apart in the source
Experimental: as §4, §2

FcgRIIa H [9] = target: T1, FcgRIIa H; test: SPR (Biacore), antibody captured, FcgR as analyte; remark: listed apart in the source
Experimental: as §4, §2

FcgRIIa R [10] = target: T2, FcgRIIa R; test: SPR (Biacore), antibody captured, FcgR as analyte; remark: listed apart in the source
Experimental: as §4, §2

Binder | Kd [1] [nM] | Kd [2] [nM] | Kd (FcgRIIIa F [3]) [nM] | Kd (FcgRIIIa V [4]) [nM] | Kd (FcgRIIa H [5]) [nM] | Kd (FcgRIIa R [6]) [nM] | Kd (FcgRIa) [nM] | Kd (FcgRIIb) [nM] | Kd (FcgRIIIa F [7]) [nM] | Kd (FcgRIIIa V [8]) [nM] | Kd (FcgRIIa H [9]) [nM] | Kd (FcgRIIa R [10]) [nM]
B1 | 86 | 660 |  |  |  |  |  |  |  |  |  | 
B2 | 16 | 77 |  |  |  |  |  |  |  |  |  | 
B3 |  |  | 960 | 340 | 2100 | 950 |  |  |  |  |  | 
B4 |  |  |  |  |  |  | 0.21 | 5000 | 1.7 | 0.62 | 350 | 600
B5 |  |  |  |  |  |  | 0.27 | 1300 | 1.4 | 0.43 | 62 | 130
B6 |  |  |  |  |  |  | 0.24 | 4200 | 1.2 | 0.37 | 190 | 380
B7 |  |  | 120 | 14 | 160 | 450 |  |  |  |  |  | 
